The values below come from PMC8261802.

The target in experiment [1] is PEDV/S(1–1320) + CMP + Tags (porcine epidemic diarrhea virus (PEDV), strain 83P-5 | chicken). Put plainly: SEC; Superose 6 increase 10/300 GL in 1 x PBS; markers thyroglobulin 669 kDa, ferritin 440 kDa, aldolase 158 kDa.
For experiment [2] the target is unchanged. Put plainly: native gel or EMSA; Blue-native PAGE, 3 to 12% Bis-Tris NativePAGE gel, 115 min at 150 V, CBB stain; purified S protein.

Consider PEDV/S(1–1320) + CMP + Tags, for which the stoichiometry N in experiment [1] and in experiment [2] was 3 throughout.
